Assay results as given in the nanobody polyreactivity screen of Harvey et al. (2022).

Assay: yeast display, Sf9 membrane polyspecificity reagent, FACS + sequencing; frameworks hold sequencing errors
Outline: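 In a synthetic yeast display library (Saccharomyces cerevisiae BJ5465), nanobody expression was induced with galactose for 36–48 hours. FACS gates were set low and high (top ~1%) using anti-HA fluorescence for expression and streptavidin fluorescence for binding of the Sf9 membrane reagent. Each polyreactivity label is drawn from the gate of origin.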

| Sequence | polyreactivity (PSR sort gate) |
| --- | --- |
| QVQLVESGGGLVQAGGSLRLSCAASGRTFDGYMGWYRQAPGKERELVAAISYDTGSTYADSVKGRFTISRDNAKNTVYLQMNSLKPEDTAVYYCYGYPYQTLYGYWGQGTQVTVSS | low polyreactivity |
| QVQLVESGGGLVQAGGSLRLSCAASGRTFDHYAMGWYRQAPGKERELVAAITSGGSTYYADSVKGRFTISRDNAKNTVYLQRNSLKPEDTAVYYCNKDSSFWGYYIAQVNERDYWGQGTQVTVSS | low polyreactivity |
| QVQLVESGGGLVQAGGSLRLSCAASGRTFDIYAMGWYRQAPGKERELVADITWSDGTTYYADSVKGRFTISRDNAKNTVYLQMNSLKPEDTAVYYCNAYTVYAYDYWGQGTQVTVSS | low polyreactivity |
| QVQLVESGGGLVQAGGSLRLSCAASGRTFDRYAMGWYRQAPGKERELVAAISSGGSTYYADSVKGRFTISRDNAKNTVYLQMNSLKPEDTAVYYCAAGESGSFFIYYYWGQGTQVTVSS | low polyreactivity |
| QVQLVESGGGLVQAGGSLRLSCAASGRTFDRYAMGWYRQAPGKERELVAAITWSGGRTYYADSVKGRFTISRDNAKNTVYLQMNSLKPEDTAVYYCAADNSYRGYHSPYDYWGQGTQVTVSS | low polyreactivity |
| QVQLVESGGGLVQAGGSLRLSCAASGRTFDSYAMGWYRQAPGKERELVAAIYADSVKGRFTISRDNAKNTVYLQMNSLKPEDTAVYYCAAETYSGQTYLGEYDYWGQGTQVTVSS | low polyreactivity |
| QVQLVESGGGLVQAGGSLRLSCAASGRTFDSYTMGWYRQAPGKERELVADITFTGGSTYYADSVKGRFTISRDNAKNTVYLQMNSLKPEDTAVYYCNADREYKWYFRYDYWGQGTQVTVSS | low polyreactivity |
| QVQLVESGGGLVQAGGSLRLSCAASGRTFDTNARGWYRQAPGKERELVAVITARGGNTSYADSVKGRFTISRDNAKNTVYLQMNSLKPEDTAVYYCAARVYRAPWTYEEGNYWGQGTQVTVSS | low polyreactivity |
| QVQLVESGGGLVQAGGSLRLSCAASGRTFDTNPMGWYRQAPGKERELVAVITARGGNTSYADSVKGRFTISRDNAKNTVYLQMNSLKPEDTAVYYCAARVYRAPWTYEEGNYWGQGTQVTVSS | low polyreactivity |
| QVQLVESGGGLVQAGGSLRLSCAASGRTFDYNAIGWYRQAPGKERDFVAAISGRGGSTYYADSVKARFTISRDNAKNRVYLQMYSLKPEDTAVYYCAADLRFRYSGRYDYWGQGTQVTVSS | high polyreactivity |
| QVQLVESGGGLVQAGGSLRLSCAASGRTFDYNTMGWYRQAPGKERELVAAISASGGSTYYADSVKGRFTISRDNAKNTVYLQMNSLKPEDTAVYYCAAARAAIVPGYYSWGQGTQVTVSS | low polyreactivity |
| QVQLVESGGGLVQAGGSLRLSCAASGRTFDYYAMGWYRPAPGKERELVAAIRTSGGSTNYADSVKGRFTISRDNAQNTVYLLMNSLKPEDTAVYYCAARDRPGAYYYGGQGTQVTVSS | high polyreactivity |
| QVQLVESGGGLVQAGGSLRLSCAASGRTFEGNAMGWYRQAPGKERELVAAITSGGRTNYADSVKGRFTISRDNAKNTVYLQMNSLKPEDTAVYYCAKVYRSIGPNVSRYGLSYYYWGLGTQVTVSS | low polyreactivity |
| QVQLVESGGGLVQAGGSLRLSCAASGRTFEHYAMGWYRQAPGKERELVAAINSSDGGTYYADSVKGRITISRDNPKNTVYLQMNSLKPEDTAVYYCAAAEFGSVPGYEMDYWGQGTQVTVSS | low polyreactivity |
| QVQLVESGGGLVQAGGSLRLSCAASGRTFENNAMGWYRQAPGKERELVATIRYSGTSTYADSVKGRFTISRDNAKNTVYLQMNSLKPEDTAVYYCAKQVRYYGYKYNYWGQGTQVTVSS | high polyreactivity |
| QVQLVESGGGLVQAGGSLRLSCAASGRTFEQYAMGWYRQAPGKERELVAAISKRGGSTYYADSVKGRFTISRDNAKNTVYLQMNSLKPEDTAVYYGATEKASNYFYRFDYWGQGTQVTVSS | low polyreactivity |
| QVQLVESGGGLVQAGGSLRLSCAASGRTFESYAMGWYRQAPGKERELVAAITWSGGDTYYADSVKGRFTISRDNAKNSVYLQMNSLKPEDTAVYYCAKEQGLYSVSPYDYWGQGSQVTVSS | low polyreactivity |
| QVQLVESGGGLVQAGGSLRLSCAASGRTFETNAMGWYRQAPGKERELVAAISRSGGRTYYADSVKGRFTISRDNAKNTVYLQMNSLKPEDTAVYYCAVRQATVTGGGYWGQGTQVTVSS | high polyreactivity |
| QVQLVESGGGLVQAGGSLRLSCAASGRTFEVYAMGRYRQPPGKERELVATITYSGGITYYADSVKGRFTISRDNAKNTVYLQMNSLKPEYTAVYYPICVGGDYDYWGQGTQVTVSS | low polyreactivity |
| QVQLVESGGGLVQAGGSLRLSCAASGRTFEVYAMGWYRQAPGKERELVAAISGGDDSTYYADSVQGRFTISRDNAKNTVYLQRNSLKPEDTAVYYCNAHYPTSATLPKTVVEYDYWGQGTQVTVSS | low polyreactivity |
| QVQLVESGGGLVQAGGSLRLSCAASGRTFFDYSMGWYRQAPGKERELVAAITGGDGSTYYADSVKGRFTISRDNAKNTVYIQMNSLKTEDTAVYYCAAENTRTYWYAAMDYWGQGTQVTVSS | low polyreactivity |
| QVQLVESGGGLVQAGGSLRLSCAASGRTFFGRNVMGWYRPAPGNDRELVAAITSSGASTYYADSVKGRFTISRDNAKNTVYLQMNSLKPEDTAVYYCAAVRYVWQGYDYWGQGTQVTVSS | high polyreactivity |

| Sequence | polyreactivity (PSR sort gate) |
| --- | --- |
| QVQLVESGGGLVQAGGSLRLSCAASGRTFFGYAMGWYRQAPGKERELVAAITSSGGRTYYADSVKGRFTISRDNAKNTVYLQMNSLKTEDTAVYYCNTVLSFRSVNIYRGRGDYWGQGTLVTVSS | high polyreactivity |
| QVQLVESGGGLVQAGGSLRLSCAASGRTFFHYAMGWSRQAPGKERELVAGISSGGRTKYADSVKGRFTISRDNAKNTVYLQMNSLKPEDTAVYYCAASYIVWLTRGAPRKRFDYWGQGTQVTVSS | high polyreactivity |
| QVQLVESGGGLVQAGGSLRLSCAASGRTFFHYAMGWYRQAPGKERELVAAISYRGTSTYYADSVKGRFTISRDNAKNTVYLQMISLKPEDTAVYYCNAYSTRCGWSYRGDSWGQGTQVTVSS | high polyreactivity |
| QVQLVESGGGLVQAGGSLRLSCAASGRTFFLYAMGWYRQAPGKESEFVATISYGGGSTYYADSVKGRFTISRDNAKNTVYLQMNSLKPEDTAVYYCNALNTSQYAEGTSDYDGNMGNWGQCTQVTVSS | low polyreactivity |
| QVQLVESGGGLVQAGGSLRLSCAASGRTFFQYAMGGYRQAPGKERELVAAIRWSDSTYYADSVKGRFTISRDKAKNTVYLPMNSLKPEDTAVYYCNASVFQSEYDYWGQGTQVTVSS | low polyreactivity |
| QVQLVESGGGLVQAGGSLRLSCAASGRTFFRYAMGWYRQAPGKERELVAAISSSGGSSYYADSVKGRFTISRDNAKNTVYLQMNSLKPEDTAVYYCNRVYALTYYAKYGYDFWGQGTQVTVSS | high polyreactivity |
| QVQLVESGGGLVQAGGSLRLSCAASGRTFFRYARGGYRQAPGKERELVAAISVSGASTNYADSVKGRFTISRDNAKNTGYLQMNSQKPEDTAVYYCAARVADYDGVPLYRHGDYWGPGTQVTVSS | low polyreactivity |
| QVQLVESGGGLVQAGGSLRLSCAASGRTFFWNAMGWYRQAPGKERELVAAITWSGGSTYYADSVKGRFTISRDNAKTTVYLQMNSLKPEDTAVYYCAAVVSDYVWRYEYWGQGTQVTVSS | low polyreactivity |
| QVQLVESGGGLVQAGGSLRLSCAASGRTFFYAMGWYRQAPGKEREFVAAISWSGGSTYYADSVKGRFTISRDNAKNTVYLQMNSLKPEDTAVYYCNKVGYYGVGTSQEFDYWGQGTQVTVSS | high polyreactivity |
| QVQLVESGGGLVQAGGSLRLSCAASGRTFFYYAMGWYRQATGKERELVAAITSSGGSTNYADSVKGRFTISRDNAKNTVYLQMNSLKPEDTAVYYCNRDRRLNRVPYFDYWGQGTQVTVSS | high polyreactivity |
| QVQLVESGGGLVQAGGSLRLSCAASGRTFFYYTMGWYRQAPGKERELVAAISRSGGSTYYADSVKGRFTITRDKAKNTVYLQMNSLKPEDTAVYYCAADRSRNFDWGQGTQVTVSS | high polyreactivity |
| QVQLVESGGGLVQAGGSLRLSCAASGRTFGANAMGWYRQAPGKERELVAAISSSDDSTYYADSVKGRFTISRDNAKNTVYLQMNSLKPEDTAVYYCAAEDVYPQLDYWGQGTQVTVSS | low polyreactivity |
| QVQLVESGGGLVQAGGSLRLSCAASGRTFGANTMGWYRPAPGKERELVAAITWSGDSTYYADSVKGRFTISRDNAKNTVYLQMNSLKPEDTAVYYCAARLWRQYYYWGQGTQVTVSS | high polyreactivity |
| QVQLVESGGGLVQAGGSLRLSCAASGRTFGDYAMGGYRPAPGKESELVAAISRRGGNTYYADSVKGRFTISRDNAKNTVYLQMNSLKPDDTAVYDCAAVAYALGFASKEDYWGQGTQVTGSS | high polyreactivity |
| QVQLVESGGGLVQAGGSLRLSCAASGRTFGFNAKGRYRQAPGTERELVAAISGSGGRPYYADSVKWRFTISRDNAKNTDYLQMNSLKPEDSAVYYCAAGARRGGSGYWGQGTQVTVSS | high polyreactivity |
| QVQLVESGGGLVQAGGSLRLSCAASGRTFGGNAMGWSRQAPGKERELVAAISISGGSNTYYADSVKGRFTISRDNGKNTVYLQMNSLKPEDTAVYYCAARSTVYISSDYWGQGTQVTVSS | low polyreactivity |
| QVQLVESGGGLVQAGGSLRLSCAASGRTFGGNAMGWYRQAPGKERELVAAITGRGGSTYYADSVKGRFTISRDNAKNTVYLQMNSLKAEDTAVYYCAKQFKRGYGYDYWGQCTQVTVSS | low polyreactivity |
| QVQLVESGGGLVQAGGSLRLSCAASGRTFGGNAMGWYRQAPGKERELVATIRSSSSTNYADSVKGRFTISRDNAKNTVYLQMNSLKPEDTAVYYCARRSQRGIYSMYYWGQGTQVTVSS | low polyreactivity |
| QVQLVESGGGLVQAGGSLRLSCAASGRTFGGNAMGWYRQAPGKERELVATIRSSSSTNYADSVKGRFTISRDNAKNTVYVQMNSLKQEDTAVYYCNAARPDALNTYGYGFDYWGQGTQVTVSS | low polyreactivity |
| QVQLVESGGGLVQAGGSLRLSCAASGRTFGGNAMGWYRQAPGKEREYVAAISRSGTSTYYADSVKGRFTISRDNAKNTVYLQMNSLKPEDTGVYYCAALNYHKFAHKSDYWGQGTQVTVSS | low polyreactivity |
| QVQLVESGGGLVQAGGSLRLSCAASGRTFGGYALGWYRQAPGKERELVAAISSGGGTYADSVKGRFTISRDNAKNTVYIQMNSLKPEDTAVYYCAAGYRWYWASKPTVHYYYWGPGTQVTVSS | high polyreactivity |
